Reference: publication PMC7953435 (Cell host & microbe, 2021)

Molecular target: N-terminal domain of SARS-CoV-2 spike (NTD, residues 1–330) (SARS-CoV-2, UniProt P0DTC2)
Experiment: crystal structure

B1: antibody 2–51 Fab (Fab, V domains shown)
VH: QVQLVQSGAEVKKPGASVKVSCKVSGYTLIELSMHWVRQAPGKGLEWMGGFDPEDVETIYAQQFQGRVTMTEDTSTDTAYMELSSLRSEDTAVYYCATGWAYKSTWYFGYWGQGTLVTVSS
VL: QSALTQPPSASGSPGQSVTISCTGTSSDVGGYNYVSWYQQHPGKAPKLMIYEVSKRPSGVPDRFSGSKSGNTASLTVSGLQAEDEADYYCSSYAGSRMGFGGGTKLTVL
binding result: binds
